Measured values as given in publication PMC7662849 (2020).
Groups on a side chain read outwards from the residue.

Target: T1, H3(E5)2 branched peptide (not fully specified)
T1 chain: Ac-EEEEEGGK([Gly-Gly-Kme3‑VGGTAPAS])GGEEEEE-NH2
Assay: NMR titration

Kd: 360 µM
B1: PSIP1 (LEDGF) PWWP domain PWWP (protein)
chain: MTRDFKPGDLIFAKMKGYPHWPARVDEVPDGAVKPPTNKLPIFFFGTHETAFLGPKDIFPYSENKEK
